Reference: the supplement of paper PMC12764529
± gives the half width of the 95% confidence interval.

Legend:
[1] = folding stability dG unfold from chymotrypsin proteolysis; higher = more stable
How it was run: (§1)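 Sequencing followed digestion of designed mini-proteins with trypsin and chymotrypsin, each at 11 concentrations in threefold dilutions together with a no-protease condition. The mini-proteins were under 80 residues, had no cysteine, sat in a PA-tagged cDNA display construct, and were kept only if AlphaFold2 dimer inter-PAE was above 15. From the counts, Bayesian fitting gave K50, and unfolding free energy was derived against a sequence-predicted unfolded-state K50 and a shared folded-state K50, per protease or combined.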

[2] = folding stability dG unfold (combined trypsin and chymotrypsin); higher = more stable
How it was run: as §1

[3] = folding stability dG unfold from trypsin proteolysis; higher = more stable
How it was run: as §1

Sequence	folding stability dG unfold [1] [kcal/mol]	folding stability dG unfold [2] [kcal/mol]	folding stability dG unfold [3] [kcal/mol]
DMEPEPFTIELPNVKIEVQVYRTPNKLSVNAPIEFPNGKNLTISFKYEPTPDGIKLEISIMIPKKAIEKLLS [r1_153_TrROS]	3.44 ± 0.1	3.1 ± 0.3	2.33 ± 0.097
SAGGSAGGMKYLDVVLHPDTGATYSSLEEIKASSSGPFQIKTGDGKWIYLPVEELSSLPTPLASSAGGSAGG [r6_685_JUSTAS]	0.331 ± 0.048	0.247 ± 0.065	0.0571 ± 0.039
SAGGEEKVITKEETITVPPDAGTITISSNEVIKDPNSSYTYYVKESKTVSRDPNSNVYTITLKIKVEKSAGG [r13_574_JUSTAS]	0.917 ± 0.43	0.647 ± 0.33	-0.0992 ± 0.12
SMITIPYNIQTDPSQAEKLAEEIAKEVEEKYGLKVVGVELVEWVPAPDGSESSVKVEIKIEAPDPKNILLSA [r9_302_JUSTAS]	0.713 ± 0.089	0.705 ± 0.096	0.614 ± 0.031
SAGGMTPEELEAAARAAAAALRAELEAGDPDVEVDLEVDPEKGTATFTVTDRATGRPRTLTVPFAELASAGG [r13_354_JUSTAS]	1.94 ± 0.054	1.53 ± 0.073	0.871 ± 0.074
SAGGDWMLVIEIEIEGQPTPDGQIKVEISIEIELVRPPPPPITPWDRMAEEARDKNPNIPPDDPEAMTSAGG [r13_136_TrROS]	1.7 ± 0.095	1.93 ± 0.2	2.12 ± 0.11
SAGGSAGGSPPNWKTIPITFWVDPGDVEEFANILRDLGLEIEDVEVEPNPDGHVWVTITIVIPSAGGSAGGS [r12_905_TrROS]	3.54 ± 0.1	3.33 ± 0.18	2.57 ± 0.17
SAGGSAGGSAGGEELEVSVSVSVTEVDGKLYLTATVTIDGKEYTFTAELTVTLPPPPPEESAGGSAGGSAGG [r7_413_TrROS_Hall]	3.91 ± 0.19	3.71 ± 0.28	2.77 ± 0.32
SAGGSAGGSPYLVTVTLPDGSTLTHTIPVPPDVPLSEEEIRERIRREYPGPPLGPITIERPTESAGGSAGGS [r12_262_JUSTAS]	1.62 ± 0.047	1.35 ± 0.09	0.885 ± 0.015
SAGGNPDGKPDGGVSFVVNVAKTKPYIDPSTGKVYPVVEVKPVVIEVKKDEKLDLSELLKNTDYISVSSAGG [r13_753_TrMRF]	0.142 ± 0.13	0.0383 ± 0.12	-0.463 ± 0.14
SAGGSAGGSAMKTIEIDIVIKNKETGEYYKAKAKIFENEDGSLIIEIEFEKNGKTLLIVLPPSAGGSAGGSA [r18_426_TrROS_Hall]	3.82 ± 0.11	3.61 ± 0.2	3.31 ± 0.096
SAANPKDIVKAEIEIPGKYGAKFTVYTLPDGTVIVPAEVTLIEGDKPVKKPLVLVVDASTGKILAIADASAG [r14_630_TrMRF]	1.68 ± 0.06	1.46 ± 0.042	1.09 ± 0.033
SAGGSAGGSAGGGKKKVTVEFVIKVPKNSKPVFFTIKGGIKVEFYPIPDTNYALVKVTFGSAGGSAGGSAGG [r7_796_TrMRF]	3.92 ± 0.12	3.52 ± 0.15	2.46 ± 0.19
SAGMILPPNTVVTLSTTTTEELPLFTDGSGPRTTTTETVVTVEPVPVNPYPDPAVREKLLAEGKPLELLSAG [r5_624_JUSTAS]	-0.207 ± 0.13	-0.265 ± 0.12	-0.513 ± 0.13
SAGKKKVIIVKVKPEDLEKLLEAIKKLPKEKVKRIEIEVNGKLYLIEVTDKEIKIYDIETGEEKTIKLSAGG [r19_154_TrROS_Hall]	2.6 ± 0.061	2.39 ± 0.56	2.1 ± 0.22
SKLKIEDIKWNPNYPGMYEFKIKLPDKPATIQIPHDPNNGRFMMEIWYPDKPVTVQFDSWDDALAFIKELSA [r9_366_TrROS]	1.35 ± 0.16	1.52 ± 0.11	1.6 ± 0.046

Sequence	folding stability dG unfold [1] [kcal/mol]	folding stability dG unfold [2] [kcal/mol]	folding stability dG unfold [3] [kcal/mol]
SAGGSAGGSAGGSVTISYNPETGTVVISSPKNKKIITINAENYTPEEILEKAKEAGIDLSAGGSAGGSAGGS [r4_49_TrMRF]	2.02 ± 0.056	1.64 ± 0.045	0.613 ± 0.035
SAGGSASPEKVAEELKKKGYKEVKITKDPNTNVTTVTVEDPSGKKYTLTVDPKNPTVVSKKEFSLDSAGGSA [r15_648_JUSTAS]	1.51 ± 0.096	1.25 ± 0.14	0.926 ± 0.043
SAGGSAGGSASPQVVEVLSTVPLPGSNIVIEKTSDASGNSYVYDPNTGKWFSPEEAKKLLSSAGGSAGGSAG [r3_206_JUSTAS]	1.73 ± 0.077	1.5 ± 0.1	0.84 ± 0.057
SAGKKKKIKKIEIEIEKNKDGKEIKVKVKVDGKEYEFTFPKNMSLEELLKKLKEELEKEGLKIEEVEIKSAG [r5_305_TrROS_Hall]	2.8 ± 0.13	2.73 ± 0.18	2.5 ± 0.13
SAGSRILERLREEGLTITKVTSVEKGPGYERIEVETALPDGTTGKVKVTRDPADPDKIEVELEFTPAEVSAG [r5_683_JUSTAS]	1.71 ± 0.023	1.38 ± 0.052	0.797 ± 0.022
SMATVLSVSENPENPDTLSFEVELPDSPMSVTVPKDPKTGKYTMTVETPEATTTRDFTSLEDALAYIERASA [r9_366_JUSTAS]	0.758 ± 0.08	0.795 ± 0.034	0.787 ± 0.021
SAGMEELAEELAKELEGEGLKVEVEVDPETGVVTVTAYSPESVTVVTITQDPNNDAFTVNTTTYPPLLSAGG [r19_2_JUSTAS]	2.95 ± 0.061	3.02 ± 0.059	3.07 ± 0.083
SAGGSASMVEEEVTLQKKVKSEEEALKFAEEVKESNPHVKTVEVSLEKLPDGSILVNVTIKRILKPSAGGSA [r15_726_JUSTAS]	3.31 ± 0.093	4.21 ± 0.29	4.43 ± 0.4
SAGKKITAEELAKKIAEELGLPEDAKVEVEEVDGTIYIRVEGYVIKITVKDGEITIEIKPAPASPEALKSAG [r5_190_TrROS_Hall]	2.91 ± 0.11	2.43 ± 0.28	1.53 ± 0.044
SAGGSAGGSDDMIPIPFKIKLKDPNGKPHEFPVTIWINPEDGMIMIRYPNQPIMIDPDKIEIESAGGSAGGS [r20_48_TrROS]	1.07 ± 0.19	1.01 ± 0.16	0.975 ± 0.089
SAGGSAGGWKIIEVDPKKGVVMIEMDPEEGNWYVRVPNGPIQRFDSPEEIEEKFGFPVEIYPLPSAGGSAGG [r6_753_TrROS]	0.816 ± 0.092	1.14 ± 0.17	1.3 ± 0.098
SAGGSAGGSAEWKPITYWVPPGQSIKEIADDLMDKNPRITDAEMEYDPDGYMKVTLTVRLDSAGGSAGGSAG [r3_371_TrROS]	0.505 ± 0.14	0.552 ± 0.086	0.493 ± 0.056
SAGGSAGGSAPSKKVKFKVLAKNTKTGKYKEIDITAEVPVSNGKVVSIEELLKKFPDFELKPSAGGSAGGSA [r18_267_TrMRF]	0.0845 ± 0.38	0.172 ± 0.21	0.342 ± 0.11
PFPIYVKIERDGKPVREEPIPMDELQEMPVEEVIEYARELLRQFPGRKYKVEVYFPGGPREFEIKDPEDIKS [r1_477_TrROS]	1.58 ± 0.14	1.28 ± 0.16	0.496 ± 0.071
SAGGSAGGSAGIITIWFPPDEEFRDFIENLPGPIEDVNIEPRNPGWIKVTLTMRMPPDQVSAGGSAGGSAGG [r11_143_TrROS]	0.864 ± 0.17	0.871 ± 0.17	0.703 ± 0.07
